Experimental data taken from article doi:10.64898/2025.12.01.691523.

Target: Anopheles culicifacies ferritin heavy chain homolog (AcFtnHCH), recombinant, refolded (Anopheles culicifacies)
Assay: native gel or EMSA

Substance: Anopheles culicifacies ferritin heavy chain homolog (AcFtnHCH), recombinant, refolded (natural protein)
- stoichiometry N: 24
